Data published in article PMC6400067.

Molecular target: phosphoenolpyruvate carboxylase (Ppc; cce_3822) (Cyanothece ATCC 51142 (endogenous in the cells))
Assay: SEC

Q: “phosphoenolpyruvate carboxylase (Ppc; cce_3822) (enzyme)” was tested. Which Rapp (Mapp / Mmono) did it give?
A: 4.6
